Test results: PMC6300008

Assay: LDH release into supernatant, 24 h
Details: glycan lost; control: WT-transfected BV2 cells plus LPS, co-cultured with neurons

B1: CD200R1 (CD200 receptor 1): N44Q (protein)
parent chain: MFCFWRTSALAVLLIWGVFVAGSSCTDKNQTTQNNSSSPLTQVNTTVSVQIGTKALLCCFSIPLTKAVLITWIIKLRGLPSCTIAYKVDTKTNETSCLGRNITWASTPDHSPELQISAVTLQHEGTYTCETVTPEGNFEKNYDLQVLVPPEVTYFPEKNRSAVCEAMAGKPAAQISWSPDGDCVTTSESHSNGTVTVRSTCHWEQNNVSDVSCIVSHLTGNQSLSIELSRGGNQSLRPYIPYIIPSIIILIIIGCICLLKISGFRKCKLPKLEATSAIEEDEMQPYASYTEKSNPLYDTVTKVEAFPVSQGEVNGTDCLTLSAIGI
other: neuronal death in co-culture: increases
